Source: publication PMC10499821

Target: Nsp5 (SARS-CoV-2) (UniProt P0DTD1)
Test: fluorescence polarisation

Binder | Kd [µM]
GASSRLQASLSSSDV [SHROOM2_(403–417)] | 280
TVKFHARTGMIESNR [DLG3_(577–592)] | 7
